Patent publication US20090155255A1 (published 2009)
Changes are numbered by the printed parent chain. One block for each binder: values may come before it.

Assays:
[1] = molecular target: T1, soluble CD23 antigen (soluble and monomeric form) (UniProt P06734 150-321); experiment: FRET competition
T1 chain: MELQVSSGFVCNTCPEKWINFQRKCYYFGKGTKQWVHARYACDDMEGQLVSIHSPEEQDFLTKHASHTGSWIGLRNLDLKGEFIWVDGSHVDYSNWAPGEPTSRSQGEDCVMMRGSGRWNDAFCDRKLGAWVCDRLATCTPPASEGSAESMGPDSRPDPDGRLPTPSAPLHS

[2] = molecular target: T1, soluble CD23 antigen (soluble and …); experiment: DELFIA
[3] = molecular target: T1, soluble CD23 antigen (soluble and …); experiment: Biacore
[4] = molecular target: IEH-250; experiment: Biacore
[5] = molecular target: IEH-241; experiment: Biacore
[6] = molecular target: IEH-248; experiment: Biacore
[7] = molecular target: IEH-245; experiment: Biacore
[8] = molecular target: IEH-243; experiment: Biacore
[9] = molecular target: IEH-251; experiment: Biacore
[10] = molecular target: IEH-250; experiment: DELFIA
[11] = molecular target: IEH-239; experiment: DELFIA
[12] = molecular target: IEH-241; experiment: DELFIA
[13] = molecular target: IEH-248; experiment: DELFIA
[14] = molecular target: IEH-245; experiment: DELFIA
[15] = molecular target: IEH-243; experiment: DELFIA
[16] = molecular target: IEH-251; experiment: DELFIA

- IC50 [1]: 0.052 µg/mL
- Kd [2]: 1.2 nM
- Kd [3]: 0.8 nM
B1: stabilized p5E8 pIEH252 scFv (scFv)
scFv: DIQMTQSPSSLSASVGDRVTITCRASQDIRYYLNWYQQKPGKAPKLLIYSASSLQSGVPSRFSGSGSGTEFTLTVSSLQPEDAATYYCLQVYSTPRTFGQGTKVEIKGGGGSGGGGSGGGGSEVQLVQSGGGLAKPGGSLRLSCAASGFRFTFSNYYMDWVRQAPGQGLEWVGRISSSGDPTWYADSVKGRFTISRDNAKNTLFLQMNSLRAEDTAVYYCASLTTGSDSWGQGVLVTVSS

- IC50 [1]: 0.061 µg/mL
- Kd [2]: 1 nM
- Kd [3]: 0.9 nM
B2: stabilized p5E8 pIEH246 scFv (scFv)
scFv: B1 scFv with S154N, P181H, D197E

- Kd [4]: 4.3 nM
- Kd [5]: 4.6 nM
- Kd [6]: 1.3 nM
- Kd [7]: 1.1 nM
- Kd [8]: 2.8 nM
- Kd [9]: 3.2 nM
- Kd [10]: 2.6 nM
- Kd [11]: 3 nM
- Kd [12]: 1.2 nM
- Kd [13]: 2.4 nM
- Kd [14]: 1 nM
- Kd [15]: 1.2 nM
- Kd [16]: 1.5 nM
B3: CD23 (receptor)
chain: T1 chain
